Results as given in PMC7545097, “Mapping the native interaction surfaces of PREP1 with PBX1 by cross-linking mass-spectrometry and mutagenesis” (Scientific Reports, 2020).
Where a chain is given by its changes, count along the chain named. Blank lines part the entries; values can stand above or below the binder they belong to.

How the values were obtained:
Experiment in all cases: time-resolved fluorescence immunoassay (TR-FIA); plate coated with monoclonal anti-PBX1; PBX1 pre-incubated with PREP1 or MEIS1 for 1 h on ice, 10 µg/mL in 1% BSA PBS, 1 h at room temperature on the plate; detected with anti-PREP1 or biotinylated anti-MEIS1/2 and Eu^3+ conjugates; normalised to the wild-type protein taken as 1
Conditions in all cases: both partners purified
[1] = target: T1, PBX1 I197A (human, UniProt P40424 1-430, I197A)
T1 construct: PBX1, residues 1-430; source: E. coli, purified
T1 sequence (looked up): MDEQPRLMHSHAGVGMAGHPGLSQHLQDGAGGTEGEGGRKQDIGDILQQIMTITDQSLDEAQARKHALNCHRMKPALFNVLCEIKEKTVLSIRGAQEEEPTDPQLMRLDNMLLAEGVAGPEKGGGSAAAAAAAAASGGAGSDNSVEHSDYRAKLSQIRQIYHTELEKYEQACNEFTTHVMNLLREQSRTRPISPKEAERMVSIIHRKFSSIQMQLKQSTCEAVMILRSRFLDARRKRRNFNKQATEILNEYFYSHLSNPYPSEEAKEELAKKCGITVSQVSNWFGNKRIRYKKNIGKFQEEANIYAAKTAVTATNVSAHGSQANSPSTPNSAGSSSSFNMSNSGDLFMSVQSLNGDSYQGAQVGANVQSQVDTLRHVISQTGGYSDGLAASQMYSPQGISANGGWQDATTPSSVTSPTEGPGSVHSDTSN

[2] = target: T2, PBX1 Δ77-84 (human, UniProt P40424 1-430, Δ77−84)
T2 construct: PBX1, residues 1-430, with an internal deletion; source: E. coli, purified
T2 sequence (looked up): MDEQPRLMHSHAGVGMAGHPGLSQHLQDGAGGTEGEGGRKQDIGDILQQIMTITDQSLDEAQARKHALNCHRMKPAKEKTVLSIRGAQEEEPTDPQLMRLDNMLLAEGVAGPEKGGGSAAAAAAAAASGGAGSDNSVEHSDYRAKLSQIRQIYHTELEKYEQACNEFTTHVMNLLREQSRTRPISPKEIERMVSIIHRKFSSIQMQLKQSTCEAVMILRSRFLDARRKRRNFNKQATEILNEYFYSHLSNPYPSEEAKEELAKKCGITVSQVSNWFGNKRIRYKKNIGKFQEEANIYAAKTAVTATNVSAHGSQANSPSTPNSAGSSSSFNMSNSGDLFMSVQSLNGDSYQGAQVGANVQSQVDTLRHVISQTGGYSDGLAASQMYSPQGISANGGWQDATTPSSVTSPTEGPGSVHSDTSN

[3] = target: T3, PREP1 L63A (UniProt P55347 1-436, L63A)
T3 construct: PREP1 (PKNOX1), residues 1-436
T3 sequence (looked up): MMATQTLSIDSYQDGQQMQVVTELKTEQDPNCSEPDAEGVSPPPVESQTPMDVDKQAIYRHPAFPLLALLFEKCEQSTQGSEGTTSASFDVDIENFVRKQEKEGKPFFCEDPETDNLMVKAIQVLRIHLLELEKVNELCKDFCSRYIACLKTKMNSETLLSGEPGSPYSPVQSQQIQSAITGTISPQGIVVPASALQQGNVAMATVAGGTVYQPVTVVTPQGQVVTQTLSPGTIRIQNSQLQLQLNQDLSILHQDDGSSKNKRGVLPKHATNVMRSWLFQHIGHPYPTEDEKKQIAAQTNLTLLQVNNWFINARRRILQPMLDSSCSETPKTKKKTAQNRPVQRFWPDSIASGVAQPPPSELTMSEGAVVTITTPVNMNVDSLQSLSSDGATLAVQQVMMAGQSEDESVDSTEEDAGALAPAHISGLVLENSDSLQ

[4] = target: T4, PREP1 L70A (UniProt P55347 1-436, L70A)
T4 construct: PREP1 (PKNOX1), residues 1-436
T4 sequence (looked up): T3 sequence (looked up) with A63L, L70A

- binding relative to wild type [1]: ~65%
- binding relative to wild type [2]: 35%
B1: PREP1_(1-436), wild-type recombinant (TR-FIA) (natural protein, UniProt P55347 1-436, looked up)
chain: T3 sequence (looked up) with A63L
notes: also called wild-type PREP1; PKNOX1; source: E. coli, purified

- binding result [3]: binds
- binding result [4]: binds
B2: PBX1_(1-430), wild-type recombinant (natural protein, human, UniProt P40424 1-430, looked up)
chain: T1 sequence (looked up) with A197I
notes: also called wild-type PBX1; purified recombinant human PBX1; source: E. coli, purified
